Molecular target: SLA dehydrogenase RlGabD from Rhizobium leguminosarum SRDI565 (Rhizobium leguminosarum SRDI565)
Experiment: SEC-MALS

stoichiometry N: 4
Substance: SLA dehydrogenase RlGabD from Rhizobium leguminosarum SRDI565 (enzyme)

From article doi:10.1101/2023.03.13.532361
